The record followed here is patent US12698507B2, “Methods and compositions for conferring and/or enhancing herbicide tolerance using protoporphyrinogen IX oxidase of various cyanobacteria or variant thereof” (FarmHannong Co., Ltd., priority 2019, dated 2026).

B1: CyPPO19 V305M + L327T + F360I: variant of CyPPO19 PPO protein (SEQ ID NO: 1) (protein)
chain: MSEVDVAIVGGGLSGLSLAWRLQQSAPQYSVVLLEASDRLGGNITTQTAEGFVWELGPNSFAPTPALLQLIAEVGLQSELIRGDRHLPRYIYWRGQLYPLQPTRPLALATSNLLSPWGKVRAALGALGFVPPYLGSGDESVNSFFRRHLGQEVAERLVAPFVSGVYAGDPQQLSAAAAFRRIAQLEKLGGGLIAGALHLRRQQAPKPKPPTSVQMRPGELGSFKEGLAALPRAIAQQLKAPIHLQTPVQEITPDPKGGYLLRSGEQTWRARSVVLATPAYQTAELVAPFQPAIARVLATIPYPTMACVVLAYPAGLGRSVRPGFGVTIPRSQGIRTLGTIWSSCLFPQRTPAGWQVFTSIIGGATDPDLASLSEEAIVQQVQQDLNRLLDLPAAKARLLGMKVWRRAIPQYMVGYPEQWQQVTHALSQTPGLFLCSNYAEGVALGDRVEHGNRTAAAVAAYLSGGQP
modifications: Synthetic_PPO of Thermosynechococcus elongatus PKUAC-SCTE542 (comprising GenBank No. CP032152.1)
B2: CyPPO19 V305M + L327T + F360T: variant of CyPPO19 PPO protein (SEQ ID NO: 1) (protein)
chain: MSEVDVAIVGGGLSGLSLAWRLQQSAPQYSVVLLEASDRLGGNITTQTAEGFVWELGPNSFAPTPALLQLIAEVGLQSELIRGDRHLPRYIYWRGQLYPLQPTRPLALATSNLLSPWGKVRAALGALGFVPPYLGSGDESVNSFFRRHLGQEVAERLVAPFVSGVYAGDPQQLSAAAAFRRIAQLEKLGGGLIAGALHLRRQQAPKPKPPTSVQMRPGELGSFKEGLAALPRAIAQQLKAPIHLQTPVQEITPDPKGGYLLRSGEQTWRARSVVLATPAYQTAELVAPFQPAIARVLATIPYPTMACVVLAYPAGLGRSVRPGFGVTIPRSQGIRTLGTIWSSCLFPQRTPAGWQVFTSTIGGATDPDLASLSEEAIVQQVQQDLNRLLDLPAAKARLLGMKVWRRAIPQYMVGYPEQWQQVTHALSQTPGLFLCSNYAEGVALGDRVEHGNRTAAAVAAYLSGGQP
modifications: Synthetic_PPO of Thermosynechococcus elongatus PKUAC-SCTE542 (comprising GenBank No. CP032152.1)
B3: CyPPO19 V305M + I408W + F360I: variant of CyPPO19 PPO protein (SEQ ID NO: 1) (protein)
chain: MSEVDVAIVGGGLSGLSLAWRLQQSAPQYSVVLLEASDRLGGNITTQTAEGFVWELGPNSFAPTPALLQLIAEVGLQSELIRGDRHLPRYIYWRGQLYPLQPTRPLALATSNLLSPWGKVRAALGALGFVPPYLGSGDESVNSFFRRHLGQEVAERLVAPFVSGVYAGDPQQLSAAAAFRRIAQLEKLGGGLIAGALHLRRQQAPKPKPPTSVQMRPGELGSFKEGLAALPRAIAQQLKAPIHLQTPVQEITPDPKGGYLLRSGEQTWRARSVVLATPAYQTAELVAPFQPAIARVLATIPYPTMACVVLAYPAGLGRSVRPGFGVLIPRSQGIRTLGTIWSSCLFPQRTPAGWQVFTSIIGGATDPDLASLSEEAIVQQVQQDLNRLLDLPAAKARLLGMKVWRRAWPQYMVGYPEQWQQVTHALSQTPGLFLCSNYAEGVALGDRVEHGNRTAAAVAAYLSGGQP
modifications: Synthetic_PPO of Thermosynechococcus elongatus PKUAC-SCTE542 (comprising GenBank No. CP032152.1)
B4: CyPPO19 V305L + L327T + F360V: variant of CyPPO19 PPO protein (SEQ ID NO: 1) (protein)
chain: MSEVDVAIVGGGLSGLSLAWRLQQSAPQYSVVLLEASDRLGGNITTQTAEGFVWELGPNSFAPTPALLQLIAEVGLQSELIRGDRHLPRYIYWRGQLYPLQPTRPLALATSNLLSPWGKVRAALGALGFVPPYLGSGDESVNSFFRRHLGQEVAERLVAPFVSGVYAGDPQQLSAAAAFRRIAQLEKLGGGLIAGALHLRRQQAPKPKPPTSVQMRPGELGSFKEGLAALPRAIAQQLKAPIHLQTPVQEITPDPKGGYLLRSGEQTWRARSVVLATPAYQTAELVAPFQPAIARVLATIPYPTLACVVLAYPAGLGRSVRPGFGVTIPRSQGIRTLGTIWSSCLFPQRTPAGWQVFTSVIGGATDPDLASLSEEAIVQQVQQDLNRLLDLPAAKARLLGMKVWRRAIPQYMVGYPEQWQQVTHALSQTPGLFLCSNYAEGVALGDRVEHGNRTAAAVAAYLSGGQP
modifications: Synthetic_PPO of Thermosynechococcus elongatus PKUAC-SCTE542 (comprising GenBank No. CP032152.1)
B5: CyPPO19 V305M + I408W + F360V: variant of CyPPO19 PPO protein (SEQ ID NO: 1) (protein)
chain: MSEVDVAIVGGGLSGLSLAWRLQQSAPQYSVVLLEASDRLGGNITTQTAEGFVWELGPNSFAPTPALLQLIAEVGLQSELIRGDRHLPRYIYWRGQLYPLQPTRPLALATSNLLSPWGKVRAALGALGFVPPYLGSGDESVNSFFRRHLGQEVAERLVAPFVSGVYAGDPQQLSAAAAFRRIAQLEKLGGGLIAGALHLRRQQAPKPKPPTSVQMRPGELGSFKEGLAALPRAIAQQLKAPIHLQTPVQEITPDPKGGYLLRSGEQTWRARSVVLATPAYQTAELVAPFQPAIARVLATIPYPTMACVVLAYPAGLGRSVRPGFGVLIPRSQGIRTLGTIWSSCLFPQRTPAGWQVFTSVIGGATDPDLASLSEEAIVQQVQQDLNRLLDLPAAKARLLGMKVWRRAWPQYMVGYPEQWQQVTHALSQTPGLFLCSNYAEGVALGDRVEHGNRTAAAVAAYLSGGQP
modifications: Synthetic_PPO of Thermosynechococcus elongatus PKUAC-SCTE542 (comprising GenBank No. CP032152.1)

The test system of the experiment is PPO-deficient BT3 E. coli (ΔPPO). Put plainly: PPO-inhibiting herbicide tolerance test of PPO variants in E. coli (growth on herbicide-containing LB agar). Format: cell-based. The conditions noted are these: CyPPO19 variants in BT3 (ΔPPO) E. coli; LB agar with 0 to 2,000 μM herbicide, 37° C., dark, 16-20 hours. An outline of the steps:
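PPO-deficient BT3 E. coli expressing each variant from pET303 were diluted to OD600=0.5, then 10-fold serially, and spotted on LB-ampicillin agar with 0 to 2,000 μM herbicide. After 16-20 h at 37° C. in the dark, growth relative to wild type was scored from '−' (equivalent) to '+' per 10-fold resistance, max '+++++'.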
For B1, the “tolerance level relative to wild type, Carfentrazone” value is “+ (‘+’ per each 10-fold resistance)”; the “tolerance level relative to wild type, Flumioxazin” value is listed as “++++ (‘+’ per each 10-fold resistance)”; the “tolerance level relative to wild type, Fomesafen” value is “+ (‘+’ per each 10-fold resistance)”; the “tolerance level relative to wild type, Oxyfluorfen” value is given as “++ (‘+’ per each 10-fold resistance)”. For the same molecule, the “tolerance level relative to wild type, Saflufenacil” value is listed as “++ (‘+’ per each 10-fold resistance)”; the “tolerance level relative to wild type, Sulfentrazone” value is “++ (‘+’ per each 10-fold resistance)”; the “tolerance level relative to wild type, Tiafenacil” value is recorded as “++++ (‘+’ per each 10-fold resistance)”.

Take B2: the “tolerance level relative to wild type, Carfentrazone” value was “+ (‘+’ per each 10-fold resistance)”; the “tolerance level relative to wild type, Flumioxazin” value was “+++ (‘+’ per each 10-fold resistance)”; the “tolerance level relative to wild type, Fomesafen” value is listed as “++ (‘+’ per each 10-fold resistance)”; the “tolerance level relative to wild type, Oxyfluorfen” value is recorded as “++ (‘+’ per each 10-fold resistance)”. For the same molecule, the “tolerance level relative to wild type, Saflufenacil” value is “+++ (‘+’ per each 10-fold resistance)”; the “tolerance level relative to wild type, Sulfentrazone” value is on record as “+++ (‘+’ per each 10-fold resistance)”; the “tolerance level relative to wild type, Tiafenacil” value is “+++ (‘+’ per each 10-fold resistance)”.

As for B3, the “tolerance level relative to wild type, Carfentrazone” value was “+ (‘+’ per each 10-fold resistance)”; the “tolerance level relative to wild type, Flumioxazin” value is reported as “+++++ (until ‘+++++’ as maximal resistance)”; the “tolerance level relative to wild type, Fomesafen” value was “+++ (‘+’ per each 10-fold resistance)”; the “tolerance level relative to wild type, Oxyfluorfen” value was “+++ (‘+’ per each 10-fold resistance)”. Further, the “tolerance level relative to wild type, Saflufenacil” value is “+++++ (until ‘+++++’ as maximal resistance)”; the “tolerance level relative to wild type, Sulfentrazone” value was “+++ (‘+’ per each 10-fold resistance)”; the “tolerance level relative to wild type, Tiafenacil” value is “+++++ (until ‘+++++’ as maximal resistance)”.

Consider B4, for which the “tolerance level relative to wild type, Carfentrazone” value is “+ (‘+’ per each 10-fold resistance)”; the “tolerance level relative to wild type, Flumioxazin” value is recorded as “+++++ (until ‘+++++’ as maximal resistance)”; the “tolerance level relative to wild type, Fomesafen” value is reported as “+ (‘+’ per each 10-fold resistance)”; the “tolerance level relative to wild type, Oxyfluorfen” value is on record as “+++ (‘+’ per each 10-fold resistance)”. For the same molecule, the “tolerance level relative to wild type, Saflufenacil” value is “+++ (‘+’ per each 10-fold resistance)”; the “tolerance level relative to wild type, Sulfentrazone” value was “++ (‘+’ per each 10-fold resistance)”; the “tolerance level relative to wild type, Tiafenacil” value was “+++++ (until ‘+++++’ as maximal resistance)”.

B5: the “tolerance level relative to wild type, Carfentrazone” value is on record as “+ (‘+’ per each 10-fold resistance)”; the “tolerance level relative to wild type, Flumioxazin” value is listed as “+++++ (until ‘+++++’ as maximal resistance)”; the “tolerance level relative to wild type, Fomesafen” value is “+++ (‘+’ per each 10-fold resistance)”; the “tolerance level relative to wild type, Oxyfluorfen” value was “+++ (‘+’ per each 10-fold resistance)”. The “tolerance level relative to wild type, Saflufenacil” value was “+++++ (until ‘+++++’ as maximal resistance)”; the “tolerance level relative to wild type, Sulfentrazone” value was “++++ (‘+’ per each 10-fold resistance)”; the “tolerance level relative to wild type, Tiafenacil” value was “+++++ (until ‘+++++’ as maximal resistance)”.
